Series [1] concerns the molecule itself. Description: negative-stain transmission electron microscopy.
The target of series [2] is GFP-tagged Cdc11-capped recombinant septin octamers (budding yeast (S. cerevisiae), UniProt P32458;P32468;P32457;P25342). The experiment in a line: fluorescence microscopy of purified proteins in solution.

B1: Recombinant Cdc11-capped septin octamers (complex)
chain 1: MSGIIDASSALRKRKHLKRGITFTVMIVGQSGSGRSTFINTLCGQQVVDTSTTILLPTDTSTEIDLQLREETVELEDDEGVKIQLNIIDTPGFGDSLDNSPSFEIISDYIRHQYDEILLEESRVRRNPRFKDGRVHCCLYLINPTGHGLKEIDVEFIRQLGSLVNIIPVISKSDSLTRDELKLNKKLIMEDIDRWNLPIYNFPFDEDEISDEDYETNMYLRTLLPFAIIGSNEVYEMGGDVGTIRGRKYPWGILDVEDSSISDFVILRNALLISHLHDLKNYTHEILYERYRTEALSGESVAAESIRPNLTKLNGSSSSSTTTRRNTNPFKQSNNINNDVLNPASDMHGQSTGENNETYMTREEQIRLEEERLKAFEERVQQELLLKRQELLQREKELREIEARLEKEAKIKQEE
chain 2: MSAATATAAPVPPPVGISNLPNQRYKIVNEEGGTFTVMLCGESGLGKTTFINTLFQTVLKRADGQQHRQEPIRKTVEIDITRALLEEKHFELRVNVIDTPGFGDNVNNNKAWQPLVDFIDDQHDSYMRQEQQPYRTKKFDLRVHAVLYFIRPTGHGLKPIDIETMKRLSTRANLIPVIAKADTLTAQELQQFKSRIRQVIEAQEIRIFTPPLDADSKEDAKSGSNPDSAAVEHARQLIEAMPFAIVGSEKKFDNGQGTQVVARKYPWGLVEIENDSHCDFRKLRALLLRTYLLDLISTTQEMHYETYRRLRLEGHENTGEGNEDFTLPAIAPARKLSHNPRYKEEENALKKYFTDQVKAEEQRFRQWEQNIVNERIRLNGDLEEIQGKVKKLEEQVKSLQVKKSHLK
chain 3: MSLKEEQVSIKQDPEQEERQHDQFNDVQIKQESQDHDGVDSQYTNGTQNDDSERFEAAESDVKVEPGLGMGITSSQSEKGQVLPDQPEIKFIRRQINGYVGFANLPKQWHRRSIKNGFSFNLLCVGPDGIGKTTLMKTLFNNDDIEANLVKDYEEELANDQEEEEGQGEGHENQSQEQRHKVKIKSYESVIEENGVKLNLNVIDTEGFGDFLNNDQKSWDPIIKEIDSRFDQYLDAENKINRHSINDKRIHACLYFIEPTGHYLKPLDLKFMQSVYEKCNLIPVIAKSDILTDEEILSFKKTIMNQLIQSNIELFKPPIYSNDDAENSHLSERLFSSLPYAVIGSNDIVENYSGNQVRGRSYPWGVIEVDNDNHSDFNLLKNLLIKQFMEELKERTSKILYENYRSSKLAKLGIKQDNSVFKEFDPISKQQEEKTLHEAKLAKLEIEMKTVFQQKVSEKEKKLQKSETELFARHKEMKEKLTKQLKALEDKKKQLELSINSASPNVNHSPVPTKKKGFLR
chain 4: MDPLSSVQPASYVGFDTITNQIEHRLLKKGFQFNIMVVGQSGLGKSTLINTLFASHLIDSATGDDISALPVTKTTEMKISTHTLVEDRVRLNINVIDTPGFGDFIDNSKAWEPIVKYIKEQHSQYLRKELTAQRERFITDTRVHAILYFLQPNGKELSRLDVEALKRLTEIANVIPVIGKSDTLTLDERTEFRELIQNEFEKYNFKIYPYDSEELTDEELELNRSVRSIIPFAVVGSENEIEINGETFRGRKTRWSAINVEDINQCDFVYLREFLIRTHLQDLIETTSYIHYEGFRARQLIALKENANSRSSAHMSSNAIQR
Consider B1, for which, in series [1], the binding result is “binds”.

B2: MBP-Bud4ΔN-HALO (domain or fragment)
chain: MKPSDYISIWHIQEEEIKSNSPESIANSQFSQQSSITTASTVDSKKDNGSTSFKFKPRIVSRSRIYNPKSRVSSLNYYDNEDYILSNSEWNALDPMRRNTLISKRIQDNIRTQKGHAPLIRPSIMKLNGEDSGFQNHFLEVEQPQEHENIPLSTHLSEQDITTNVGLDEQKLPTNTQDEAEISIREIESAGDITFNRGDLLSLSFDEELGQDFANFLDALDHDSTSFNHGPDDSSSFQRDSSKKSFNSLWESSYELKPPPSIRKQPIAPDVLQKLLESDTKDDADLEKIREERITEPRTGLGIGMLKTPVKDVSIALAASIKGYEASFSDTDSRPEGMNNSDAITLNMFDDFEEDKMTPSTPVRSISPIKRHVSSPFKVVKAGNKQENNEINIKAEEEIEPMTQQETDGLKQDIPPLLAQTKDNVEAKEETITQLEEPQDVEQEFPDMGTLYLSIKAISTLALYGTKSHRATYAIVFDNGENVVQTPWESLPYDGNIRINKEFELPIDFKGKAETSSASSERDSYKKCVITLKCKYEKPRHELVEIVDKVPVGKSFFGKTKYKFEKKYVQKKPKQDEWDYLFAQDGSFARCEIEINEEFLKNVAFNTSHMHYNMINKWSRIADKIHGSKRLYELPRKAPHKVASLDVEACFLERTSAFEQFPKQFSLVNKIVSKYKLQQNIYKEGYLLQDGGDLKGKIENRFFKLHGSQLSGYHEISRKAKIDINLLKVTKVLRNEDIQADNGGQRNFTDWVLFNECFQLVFDDGERITFNAECSNEEKSDWYNKLQEVVELNVFHQPWVKKYCEKLAEEEKTRTTGHNLKQDFN
modifications: HaloTag Alexa-Fluor 660 fluorescent ligand on the HALO tag
Turning to B2, the binding result in series [2] is reported as “binds”.
